Data as given in article PMC3920835.

Biological target: Methylibium petroleiphilum PM1 dioxygenase (Mpe_A2762) (Methylibium petroleiphilum PM1) (UniProt A2SJH7)
Experiment: SEC-MALS

Substance: Methylibium petroleiphilum PM1 dioxygenase (Mpe_A2762) (from UniProt A2SJH7 1-253) (enzyme)
- stoichiometry N: 2
